This assay concerns the target BoNT serotype A (Clostridium botulinum, UniProt P0DPI0 2-1296). Nature of the assay: affinity; method not stated (yeast display affinity maturation).

Chain of BoNT serotype A (P0DPI0 2-1296 limits assumed): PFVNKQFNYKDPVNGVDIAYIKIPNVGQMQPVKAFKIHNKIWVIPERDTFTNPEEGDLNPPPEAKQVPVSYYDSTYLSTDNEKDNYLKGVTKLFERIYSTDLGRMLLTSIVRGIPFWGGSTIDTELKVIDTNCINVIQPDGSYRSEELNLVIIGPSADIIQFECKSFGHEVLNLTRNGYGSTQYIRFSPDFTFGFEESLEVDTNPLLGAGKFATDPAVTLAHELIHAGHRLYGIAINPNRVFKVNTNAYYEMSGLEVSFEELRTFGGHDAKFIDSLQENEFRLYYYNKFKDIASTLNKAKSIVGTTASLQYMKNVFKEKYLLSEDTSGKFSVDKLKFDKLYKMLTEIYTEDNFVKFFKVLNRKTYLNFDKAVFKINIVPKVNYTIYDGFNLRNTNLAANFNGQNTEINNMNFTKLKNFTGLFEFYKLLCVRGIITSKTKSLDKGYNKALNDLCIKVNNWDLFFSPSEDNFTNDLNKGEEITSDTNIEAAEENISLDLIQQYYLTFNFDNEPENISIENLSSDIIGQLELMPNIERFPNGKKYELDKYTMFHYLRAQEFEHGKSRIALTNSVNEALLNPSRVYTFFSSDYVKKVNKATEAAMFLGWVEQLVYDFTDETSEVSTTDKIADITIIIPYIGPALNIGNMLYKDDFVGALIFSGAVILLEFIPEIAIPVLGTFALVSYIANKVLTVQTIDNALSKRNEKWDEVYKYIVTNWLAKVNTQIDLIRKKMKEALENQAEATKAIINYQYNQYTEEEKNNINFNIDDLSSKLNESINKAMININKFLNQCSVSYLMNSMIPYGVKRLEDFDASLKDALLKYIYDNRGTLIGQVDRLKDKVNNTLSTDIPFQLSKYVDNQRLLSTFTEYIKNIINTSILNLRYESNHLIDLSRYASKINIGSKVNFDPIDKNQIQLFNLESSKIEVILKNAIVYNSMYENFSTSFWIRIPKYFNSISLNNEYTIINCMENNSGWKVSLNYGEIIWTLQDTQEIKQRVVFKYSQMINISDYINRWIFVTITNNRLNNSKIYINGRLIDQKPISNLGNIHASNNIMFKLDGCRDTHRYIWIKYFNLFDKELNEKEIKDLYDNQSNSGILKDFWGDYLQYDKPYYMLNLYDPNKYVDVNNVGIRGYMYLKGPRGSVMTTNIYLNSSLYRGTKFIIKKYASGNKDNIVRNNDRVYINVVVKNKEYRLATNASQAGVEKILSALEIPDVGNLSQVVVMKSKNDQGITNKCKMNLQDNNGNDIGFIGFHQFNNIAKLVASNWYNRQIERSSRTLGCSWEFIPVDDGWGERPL

B1: H7 VHH (VHH)
VHH: QVQLVESGGGLVQVGGSLRLSCVVSGSDISGIAMGWYRQAPGKRREMVADIFSGGSTDYAGSVKGRFTISRDNAKKTSYLQMNNVKPEDTGVYYCRLYGSGDYWGQGTQVTVSS
The Kd is the free concentration of one partner at which half of the binding sites on the other are occupied at equilibrium, for simple one-to-one binding. Lower therefore signals higher affinity. In turn, B1 gave a Kd of 0.042 nM.

These data come from patent US20180237507A1 (CITY OF HOPE, published 2018).
